Where a chain is given by its changes, count along the chain named. Names and notes keep the numbering of the source.
T1: human CTLA4 protein (human, UniProt P16410 37-162, limits assumed)
T1 construct: bought protein coated on the ELISA plate; also called human CTLA4 antigen
T1 sequence (looked up): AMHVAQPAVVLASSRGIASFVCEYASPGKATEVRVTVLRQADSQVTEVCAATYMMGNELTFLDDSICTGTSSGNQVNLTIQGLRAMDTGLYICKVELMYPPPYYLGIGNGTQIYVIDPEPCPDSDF

B1: Abs-247 (other)
heavy: VIHVTKEVKEVATLSCGHNVSVEELAQTRIYWQKEKKMVLTMMSGDANIWPEYKNRTIFDITNNLSIVYLELRPSDEGTYECLVLKYEKDAFKREHLAEVTLSVKADGGGGSGGGGSGGGGSGGGGSGEVQLLESGGGLVQPGGSLRLSCAASGFTFSSYAMSWVRQAPGKGLEWVSGISGSGGFTYYADSVKGRFTISRDNSKNTLYLQMNSLRAEDTAVYYCAKPPRGYNYGPFDYWGQGTLVTVSSASTKGPSVFPLAPCSRSTSESTAALGCLVKDYFPEPVTVSWNSGALTSGVHTFPAVLQSSGLYSLSSVVTVPSSSLGTKTYTCNVDHKPSNTKVDKRVESKYGPPCPPCPAPEFLGGPSVFLFPPKPKDTLMISRTPEVTCVVVDVSQEDPEVQFNWYVDGVEVHNAKTKPREEQFNSTYRVVSVLAVLHQDWLNGKEYKCKVSNKGLPSSIEKTISKAKGQPREPQVYTLPPSQEEMTKNQVSLTCLVKGFYPSDIAVAWESNGQPENNYKTTPPVLDSDGSFFLYSRLTVDKSRWQEGNVFSCSVMHEALHAHYTQKSLSLSLGK
light: SYVLTQPPSVSVAPGQTARITCGGNNIGSKSVHWYQQKPGQAPVLVVYDDSDRPSGIPERFSGSNSGNTATLTISRVEAGDEADYYCQVWDSSSDHVVFGGGTKLTVLGQPKAAPSVTLFPPSSEELQANKATLVCLISDFYPGAVTVAWKADSSPVKAGVETTTPSKQSNNKYAASSYLSLTPEQWKSHRSYSCQVTHEGSTVEKTVAPTECS
notes: the paragraph that names the antibody is followed; also called CD80 IgV mutant M47A/I69Y/A71E/V83L-sugemalimab fusion
B2: Abs-267 (other)
heavy: B1 heavy with T13K, M42L, A47M, Y69I, L83V
light: B1 light
notes: the paragraph that names the antibody is followed; also called CD80 IgV mutant T13K/M42L/A71E-sugemalimab fusion
B3: Abs-252 (other)
heavy: B1 heavy with A47M, Y69W
light: B1 light
notes: the paragraph that names the antibody is followed; also called CD80 IgV mutant I69W/A71E/V83L-sugemalimab fusion
B4: Abs-261 (other)
heavy: B1 heavy with A26C, A47M, Y69I, L83V, L85D
light: B1 light
notes: the paragraph that names the antibody is followed; also called CD80 IgV mutant A26C/A71E/L85D-sugemalimab fusion
B5: Abs-251 (other)
heavy: B1 heavy with A47M
light: B1 light
notes: the paragraph that names the antibody is followed; also called CD80 IgV mutant I69Y/A71E/V83L-sugemalimab fusion
B6: Abs-248 (other)
heavy: B1 heavy with Y69W
light: B1 light
notes: the paragraph that names the antibody is followed; also called CD80 IgV mutant M47A/I69W/A71E/V83L-sugemalimab fusion
B7: Abs-249 (other)
heavy: B1 heavy with L83V
light: B1 light
notes: the paragraph that names the antibody is followed; also called CD80 IgV mutant M47A/I69Y/A71E-sugemalimab fusion
B8: Abs-273 (other)
heavy: B1 heavy with A47K
light: B1 light
notes: CD80 IgV mutant fused to the N-terminus of the sugemalimab heavy chain; also called CD80 IgV mutant M47K/I69Y/A71E/V83L-sugemalimab fusion
B9: Abs-271 (other)
heavy: B1 heavy with A47H
light: B1 light
notes: CD80 IgV mutant fused to the N-terminus of the sugemalimab heavy chain; also called CD80 IgV mutant M47H/I69Y/A71E/V83L-sugemalimab fusion
B10: Abs-250 (other)
heavy: B1 heavy with Y69W, L83V
light: B1 light
notes: the paragraph that names the antibody is followed; also called CD80 IgV mutant M47A/I69W/A71E-sugemalimab fusion
B11: Abs-253 (other)
heavy: B1 heavy with A47M, L83V
light: B1 light
notes: the paragraph that names the antibody is followed; also called CD80 IgV mutant I69Y/A71E-sugemalimab fusion
B12: Abs-366 (other)
heavy: B1 heavy with E35T, A47M, Y69I, E71N, L83V
light: B1 light
notes: CD80 IgV mutant fused to the N-terminus of the sugemalimab heavy chain; also called CD80 IgV mutant E35T/A71N-sugemalimab fusion
B13: Abs-254 (other)
heavy: B1 heavy with A47M, Y69W, L83V
light: B1 light
notes: the paragraph that names the antibody is followed; also called CD80 IgV mutant I69W/A71E-sugemalimab fusion
B14: Abs-263 (other)
heavy: B1 heavy with A47M, Y69L
light: B1 light
notes: the paragraph that names the antibody is followed; also called CD80 IgV mutant I69L/A71E/V83L-sugemalimab fusion
B15: Abs-266 (other)
heavy: B1 heavy with T13K, M42L, A47Q, Y69I, L83V
light: B1 light
notes: the paragraph that names the antibody is followed; also called CD80 IgV mutant T13K/M42L/M47Q/A71E-sugemalimab fusion
B16: Abs-270 (other)
heavy: B1 heavy with T13K, M42T, A47M, Y69I, L83V
light: B1 light
notes: CD80 IgV mutant fused to the N-terminus of the sugemalimab heavy chain; also called CD80 IgV mutant T13K/M42T/A71E-sugemalimab fusion
B17: Abs-255 (other)
heavy: B1 heavy with H18W, A26M, A47M, Y69I, L83V, L85N
light: B1 light
notes: the paragraph that names the antibody is followed; also called CD80 IgV mutant H18W/A26M/A71E/L85N-sugemalimab fusion
B18: Abs-262 (other)
heavy: B1 heavy with A26C, A47M, Y69I, L83V, L85N
light: B1 light
notes: the paragraph that names the antibody is followed; also called CD80 IgV mutant A26C/A71E/L85N-sugemalimab fusion
B19: Abs-268 (other)
heavy: B1 heavy with T13K, M42T, A47H, Y69I, L83V
light: B1 light
notes: the paragraph that names the antibody is followed; also called CD80 IgV mutant T13K/M42T/M47H/A71E-sugemalimab fusion
B20: Abs-259 (other)
heavy: B1 heavy with A26M, A47M, Y69I, L83V, L85N
light: B1 light
notes: the paragraph that names the antibody is followed; also called CD80 IgV mutant A26M/A71E/L85N-sugemalimab fusion
B21: Abs-272 (other)
heavy: B1 heavy with A47Q
light: B1 light
notes: CD80 IgV mutant fused to the N-terminus of the sugemalimab heavy chain; also called CD80 IgV mutant M47Q/I69Y/A71E/V83L-sugemalimab fusion
B22: Abs-265 (other)
heavy: B1 heavy with T13K, M42L, A47H, Y69I, L83V
light: B1 light
notes: the paragraph that names the antibody is followed; also called CD80 IgV mutant T13K/M42L/M47H/A71E-sugemalimab fusion
B23: Abs-258 (other)
heavy: B1 heavy with H18W, A26C, A47M, Y69I, L83V, L85D
light: B1 light
notes: the paragraph that names the antibody is followed; also called CD80 IgV mutant H18W/A26C/A71E/L85D-sugemalimab fusion

These binders were tested against T1, human CTLA4 protein (assay: ELISA, plate-coated human CTLA4).

binding result	EC50	binding strength @ 20nM	Binder
no binding	–	–	B1
–	13.7 nM	1920%	B2
no binding	–	–	B3
no binding	–	–	B4
no binding	–	–	B5
no binding	–	–	B6
no binding	–	–	B7
no binding	–	–	B8
no binding	–	–	B9
no binding	–	–	B10
no binding	–	–	B11
no binding	–	–	B12
no binding	–	–	B13
no binding	–	–	B14
no binding	–	–	B15
no binding	–	–	B16
no binding	–	–	B17
no binding	–	–	B18
no binding	–	–	B19
no binding	–	–	B20
no binding	–	–	B21
no binding	–	–	B22
no binding	–	–	B23

Each binder was assayed against T2, human CD28 protein (human, UniProt P10747 19-152) (assay: ELISA, plate-coated human CD28).
T2 construct: bought protein coated on the ELISA plate; also called human CD28 antigen
T2 sequence (P10747 19-152 limits assumed): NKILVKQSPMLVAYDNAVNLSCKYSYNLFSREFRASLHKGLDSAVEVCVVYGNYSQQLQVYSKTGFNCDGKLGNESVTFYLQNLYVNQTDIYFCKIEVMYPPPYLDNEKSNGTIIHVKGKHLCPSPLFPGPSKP
Design: binding strength @ 100nM: reference not given here

binding result	EC50	binding strength @ 100nM	Binder
no binding	–	–	B1
no binding	–	–	B2
no binding	–	–	B3
no binding	–	–	B4
no binding	–	–	B5
no binding	–	–	B6
no binding	–	–	B7
no binding	–	–	B8
no binding	–	–	B9
no binding	–	–	B10
no binding	–	–	B11
no binding	–	–	B12
no binding	–	–	B13
–	26.1 nM	333%	B14
no binding	–	–	B15
no binding	–	–	B16
no binding	–	–	B17
no binding	–	–	B18
no binding	–	–	B19
no binding	–	–	B20
no binding	–	–	B21
no binding	–	–	B22
no binding	–	–	B23

From patent EP4538286A1 (Adlai Nortye Biopharma Co., Ltd., dated 2025)
